According to patent US20110250613A1, “Arrayed Multiple Ubiquitin Binding Domains as Linkage-specific Polyubiquitin Affinity Reagents” (THE JOHNS HOPKINS UNIVERSITY, priority 2009, published 2011):
Substitutions are numbered along the chain they refer to. Names may count otherwise. One block for each molecule: values may come before it.

Key:
[1] = biological target: T1, K63-Ub2 (Homo sapiens, UniProt P0CG47, K63R); assay: Fluorescence anisotropy binding of fluorescent tUIM peptides to K63-Ub2; conditions: for Kd: fluorescence anisotropy, single-site fit, 25° C., pH 7.4
T1 construct: Ub and K48- and K63-linked diUb and tetraUb were made as described; made in house
Excerpt: (§1) Fluorescent Labeling. Rap80 tUIM peptides were fluorescently-labeled on the sulfhydryl group of C121 (see FIG. 1). For longer Rap80 constructs, all cysteines except C121 were mutated to serine for site-specific labeling. Ataxin-3 and Vps27 UIM peptides were labeled on a single cysteine introduced at the C-terminus. Fluorescein-5-maleimide (Pierce) was coupled to cysteines following the manufacturer's instructions. After desalting through Sephadex G-25 resin, fluorescein-labeled tUIM peptides were separated from unlabeled peptides by anion-exchange chromatography (MonoQ column, GE Biosciences) by elution with a NaCl gradient in 50 mM Tris buffer, pH 7.9. The labeled peptides were essentially 100% pure by SDS-PAGE and Coomassie blue staining, and MALDI-TOF mass spectrometry confirmed the addition of a single fluorescein moiety. Fluorescence Anisotropy Binding Assays. Fluorescence anisotropy measurements were made using a Fluoromax 4 fluorometer in L format, thermostatted at 25° C. Excitation and emission monochromators were set at 492 nm and 520 nm, respectively. Slit widths were 3 nm for diUb-binding assays ([…]) or 6 nm for tetraUb-binding assays ([…]). Anisotropies were calculated by the instrument software, and the overall intensity of the fluorescence signal was monitored at each point with the polarizers oriented at the magic angle. All measurements were made in fluorescence buffer (25 mM Na phosphate [pH 7.4], 150 mM NaCl, 5 mM β-mercaptoethanol, 1 mM EDTA, and either 0.005% surfactant P20 (BIACORE) or 0.05% Brij35). Concentrations of the fluorescent proteins were calculated using the fluorescein extinction coefficient at 494 nm, 68000 M^-1 cm^-1. (poly)Ub concentrations were assessed by absorbance at 280 nm using the extinction coefficient 0.16 (mg/ml)^-1 cm^-1 ([…] and Raasi, 2005). Fluorescence anisotropy data were fit with a single-site binding model as described (Wilkinson, 2004). The equilibrium constants for wild-type Vps27 peptide binding to K63 and K48 Ub4 were determined by competition with the fluorescent Vps27 7aa linker peptide as described (Wilkinson, 2004).

[2] = biological target: T2, K48-Ub2 (Homo sapiens, UniProt P0CG47, K48R); assay: Fluorescence anisotropy binding of fluorescent tUIM peptides to K48-Ub2; conditions: single-site fit, 25° C., pH 7.4
T2 construct: Ub and K48- and K63-linked diUb and tetraUb were made as described; made in house
Experimental: Fluorescence Anisotropy Binding Assays. Fluorescence anisotropy measurements were made using a Fluoromax 4 fluorometer in L format, thermostatted at 25° C. Excitation and emission monochromators were set at 492 nm and 520 nm, respectively. Slit widths were 3 nm for diUb-binding assays (1 mM fluorophore) or 6 nm for tetraUb-binding assays (0.1 mM fluorophore). Anisotropies were calculated by the instrument software, and the overall intensity of the fluorescence signal was monitored at each point with the polarizers oriented at the magic angle. All measurements were made in fluorescence buffer (25 mM Na phosphate [pH 7.4], 150 mM NaCl, 5 mM β-mercaptoethanol, 1 mM EDTA, and either 0.005% surfactant P20 (BIACORE) or 0.05% Brij35). Concentrations of the fluorescent proteins were calculated using the fluorescein extinction coefficient at 494 nm, 68000 M^-1 cm^-1. (poly)Ub concentrations were assessed by absorbance at 280 nm using the extinction coefficient 0.16 (mg/ml)^-1 cm^-1 ([…] and Raasi, 2005). Fluorescence anisotropy data were fit with a single-site binding model as described (Wilkinson, 2004).

[3] = tested on: K63-Ub4; assay: Fluorescence anisotropy binding of fluorescent tUIM peptides to K63-Ub4
Excerpt: as §1

[4] = biological target: T3, K63-Ub4 (Homo sapiens, UniProt P0CG47, K63R); assay: as above
T3 construct: Ub and K48- and K63-linked diUb and tetraUb were made as described; made in house
Excerpt: as §1

[5] = biological target: K48-Ub4; assay: Fluorescence anisotropy binding of fluorescent tUIM peptides to K48-Ub4
Excerpt: as §1

[6] = tested on: K63-Ub2; assay: Fluorescence anisotropy binding of fluorescent tUIM peptides to K63-Ub2
Excerpt: as §1

[7] = CD measurements of helical content of tUIM peptides; type: physicochemical; conditions: whole-spectrum interpretation of CD; peptide without vector-derived residues
Experimental: Measurements of 3 samples were collected and are shown in FIG. 2D: (1) 153 μM Rap80 tUIM alone, (2) 153 μM K63-Ub2 alone, and (3) a mixture of 153 μM Rap80 tUIM with 153 μM K63-Ub2. The contribution of Rap80 tUIM to spectrum (3) was sought, so that the helical content of the bound tUIM could be estimated. […] Therefore, the difference between spectrum (3) and spectrum (2) will give the contribution from Rap80 tUIM to the total CD spectrum of the Rap80-K63-Ub2 mixture. (A) The spectrum of unbound Rap80 [spectrum (1)] is shown here as triangles. The contribution of Rap80 to spectrum (3) was calculated as (3)−(2), and is shown here as squares. Because the mixture of Rap80 with K63-Ub2 is not at saturating concentrations, bound and unbound Rap80 are both present in the solution. The observed helical fraction (Hmix) for this complex mixture can be described by:
Where Fbound and Funbound are the fractions of the bound and unbound forms of Rap80 present in the mixture, respectively, and Hbound and Hunbound are the helical contents of the bound and unbound forms of Rap80, respectively. […] (B) Shown here is a summary of the secondary structure predictions from two methods and the corresponding Hbound values calculated as described above. […]
CD Measurements. […] Peptide concentrations were independently determined before each CD reading from absorbance measurements (fluorescein) of samples in the CD cuvette.

[8] = fluorescence anisotropy, single-site fit, 25° C., pH 7.4
[9] = fluorescence anisotropy Kd values
[10] = determined by competition with the fluorescent Vps27 7aa linker peptide

B1: Rap80 6aa linker: Rap80 tUIM peptide with 6-residue linker REVAAE (protein)
peptide: PSSHHHHHHSSGLVPRGSHMTEEEQFALALKMSEQEAREVAAEEEEEELLRKAIAESLNSCRPS
- Kd [1]: 87 µM
- Kd [2]: 160 µM

B2: Rap80 (residues 1-233): N-terminal 233 residues of Rap80, fluorescently labeled on the same UIM cysteine (protein)
chain: MPRRKKKVKEVSESRNLEKKDVETTSSVSVKRKRRLEDAFIVISDSDGEEPKEENGLQKTKTKQSNRAKSLAKRKIAQMTEEEQFALALKMSEQEAREVNSQEEEEEELLRKAIAESLNSCRPSDASATRSRPLATGPSSQSHQEKTTDSGLTEGIWQLVPPSLFKGSHISQGNEAEEREEPWDHTEKTEEEPVSGSSGSWDQSSQPVFENVNVKSFDRSTGHSAEHTQSGKP
- preference for K63-Ub4 over K48-Ub4 ([3]; solution fluorescence anisotropy): 7 fold

B4: Rap80 7A linker: Rap80 UIMs linked by 7 alanine residues (protein)
peptide: PSSHHHHHHSSGLVPRGSHMTEEEQFALALKMSEQEAAAAAAAAEEEEELLRKAIAESLNSCRPS
- binds K63-Ub2 more tightly than Rap80 with the wild-type linker ([1]; Table 2 Kd values): 6 fold
- Kd [1]: 3.6 µM
- Kd [2]: 160 µM

B5: Rap80 S101E: Rap80 tUIM peptide, linker REVNEQE (protein)
peptide: B4 peptide with A38R, A39E, A40V, A41N, A42E, A43Q, A44E
- Kd [1]: 16 µM
- Kd [2]: 170 ± 5 µM

B6: Rap80 S101A: Rap80 tUIM peptide, linker REVNAQE (protein)
peptide: B4 peptide with A38R, A39E, A40V, A41N, A43Q, A44E
- Kd [1]: 11 µM
- Kd [2]: 152 ± 6 µM

B8: Rap80 ARLEEKV: Rap80 tUIM peptide, linker ARLEEKV (protein)
peptide: B4 peptide with A39R, A40L, A41E, A42E, A43K, A44V
- Kd [1]: 17 µM
- Kd [2]: 230 µM

B9: Rap80 DLKAAIQ: Rap80 tUIM peptide, linker DLKAAIQ (protein)
peptide: B4 peptide with A38D, A39L, A40K, A43I, A44Q
- Kd [1]: 10 µM
- Kd [2]: 129 ± 5 µM

B10: Rap80 (WT): His6-tagged human Rap80 tandem UIM peptide, linker REVNSQE, fluorescein-labeled on C121; sequence in Table 1 (protein)
peptide: PSSHHHHHHSSGLVPRGSHMTEEEQFALALKMSEQEAREVNSQEEEEEELLRKAIAESLNSC(fluorescein)RPS
- Kd [1]: 21.6 ± 0.8 µM
- preference for K63-Ub2 over monoUb [6, 9]: 24 fold
- preference for K63-Ub2 over K48-Ub2 ([6]; from Kd values): 7 fold
- α-helical content, K63-Ub2-bound form [7]: ~100%
- α-helical content, unbound form [7]: 30%-35%
- bound K48-Ub4 tighter than K48-Ub2 [5, 9]: more than 11 times

B12: Rap80 2 x linker: Rap80 tUIM peptide with 14-residue linker REVNSQEREVNSQE (protein)
peptide: PSSHHHHHHSSGLVPRGSHMTEEEQFALALKMSEQEAREVNSQEREVNSQEEEEEELLRKAIAESLNSCRPS
- Kd [1]: 150 µM
- Kd [2]: 170 µM

Second part, the molecule after the results:

- Kd [1]: 2.2 µM
- Kd [4, 8]: 0.62 µM
- Kd [2]: 98 µM
- Kd [5, 8]: 6.5 µM
B3: Vps27 7aa linker: Vps27 UIMs connected with 7-residue linker RAEEKVK (protein)
peptide: PSSHHHHHHSSGLVPRGSHMEEEEDPDLKAAIQESLREARAEEKVKEDEEELIRKAIELSLKESRNCA

- Ki ([1]; unlabeled peptide titrated against fluorescent Rap80 tUIM peptide at saturating K63-Ub2, read-out: Ki for the binding inhibition): 24 µM
B7: unlabeled Rap80 tUIM peptide: unlabeled version of the fluorescent Rap80 tUIM peptide (protein)
peptide: B4 peptide with A38R, A39E, A40V, A41N, A42S, A43Q, A44E

- Kd [1]: 67 µM
- Kd [4, 10]: 29 µM
- binding of K63-Ub4 versus K48-Ub4 ([3]; fluorescence anisotropy): indistinguishably
- Kd [2]: 211 µM
- Kd [5, 10]: 31 µM
B11: Vps27 (WT): yeast Vps27 tandem UIM peptide with unstructured 25-residue linker (protein)
peptide: PSSHHHHHHSSGLVPRGSHMDRDYSTPEDEEELIRKAIELSLKESRNSASSEPIVPVVESKNEVKRQEIEEEEDPDLKAAIQESLREAEEAKLRSERQKAC

- Kd [1]: 60 µM
- Kd [4, 8]: 11 µM
- Kd [2]: 160 µM
- Kd [5, 8]: 7.8 µM
B13: ataxin-3 Rap80 linker: ataxin-3 UIMs spliced together with the Rap80 linker REVNSQE (protein)
peptide: PSSHHHHHHSSGLVPRGSHMDEDEEDLQRALALSRQEIREVNSQEEDEEADLRRAIQLSMQGSSRNC

- Kd [1]: 17 µM
- Kd [2]: 140 µM
- Kd [5, 8]: 9.3 µM
B14: ataxin-3 7A linker: ataxin-3 UIMs joined by a 7-alanine linker (protein)
peptide: B13 peptide with R39A, E40A, V41A, N42A, S43A, Q44A, E45A
